# Assay results from paper PMC5538626, “Structural and functional analysis of the GABARAP interaction motif (GIM)” (EMBO Reports, 2017).
# Tests used:
# [1] = target: GABARAP (for ITC and NMR) (human) (UniProt O95166); experiment: ITC; peptide 0.4 mM titrated into 0.020 mM LC3/GABARAP protein in 26 steps, 25°C; 50 mM Na2HPO4, 100 mM NaCl, pH 7.0; one-site model
# [2] = target: LC3B (for ITC and NMR) (human) (UniProt Q9GZQ8); experiment: as above
# Sequence of GABARAP (for ITC and NMR) (human) (O95166 whole entry): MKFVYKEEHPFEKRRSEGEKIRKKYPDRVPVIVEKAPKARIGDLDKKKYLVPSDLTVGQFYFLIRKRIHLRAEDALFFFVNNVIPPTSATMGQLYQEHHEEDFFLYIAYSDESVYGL
Substance,Ka [1] [M⁻¹],Kd [1] [µM],dH [1] [kcal/mol],stoichiometry N [1],Ka [2] [M⁻¹],Kd [2] [µM],dH [2] [kcal/mol],stoichiometry N [2]
PLEKHM1‐LIR N637G peptide (ITC) (from UniProt Q9Y4G2 629-642),130000,7.75,-6.7,1.17,20000,50,-1.4,–
PLEKHM1‐LIR VNV‐CIL peptide (ITC) (from UniProt Q9Y4G2 629-642),1.13e+07,0.09,-9.2,1.07,3.03e+06,0.33,-7.9,1.06
